Assay results published in patent US11732029B2, “Methods and compositions for the treatment of wounds” (The University of Chicago, priority 2017, dated 2023).
Entries after “also recorded” stand apart in the source; their conditions may differ.

How the values were obtained:
human lung fibroblasts = assay: Cell proliferation assay with vWF HBD, fibroblasts; type: cell-based; settings: vWF HBD coated plates, 72 hrs, in the presence of FGF-2
Procedure: (§1) Cell proliferation assays were performed as previously reported1. Briefly, human lung fibroblasts (Lonza) were cultured using FGM-2 medium (Lonza) (1000 cells/well) or human umbilical vein endothelial cells (HUVEC, Lonza) were cultured using EGM-2 medium (Lonza) (1000 cells/well) on 1 μg/mL vWF HBD pre-coated 96-well plates (Tissue culture treated, Falcon). Cell numbers were quantified after 72 hrs using a CyQUANT assay (Invitrogen).

[1] = test system: human umbilical vein endothelial cells (HUVEC); assay: Cell proliferation assay with vWF HBD, HUVEC; type: cell-based; settings: vWF HBD coated plates, 72 hrs
Procedure: as §1

VEGF-A145 = target: T1, VEGF-A145 (Homo sapiens, UniProt P15692); assay: vWF binding to recombinant VEGF-A isoforms (ELISA); settings: plate coated with 50 nM vWF domains, 1 μg/mL VEGF-A, vs BSA
T1 construct: All GFs and chemokines were purchased in their mature forms; purchased R & D Systems
T1 sequence (P15692 27-171 isoform P15692-6 limits assumed): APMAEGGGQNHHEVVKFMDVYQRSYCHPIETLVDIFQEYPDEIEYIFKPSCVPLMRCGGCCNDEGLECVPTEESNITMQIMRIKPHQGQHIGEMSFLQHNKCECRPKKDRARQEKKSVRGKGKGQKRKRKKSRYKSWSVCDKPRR
Procedure: (§2) ELISA was performed as previously reported1. In brief, ELISA plates (med binding: Greiner Bio-One) were coated with 50 nM BSA (GE Healthcare), pro-peptide containing recombinant vWF (Sino Biological), plasma-derived vWF (EMD Millipore), recombinant human vWF A1 domain (U-Protein Express), recombinant human vWF A2 domain (R & D systems), recombinant human vWF A3 domain (U-Protein Express), vWF A1 HBD peptide or scrambled/mutated HBD peptide (all peptides were synthesized by Genscript). After blocking with 2% BSA solution containing PBS-T, 1 μg/mL of recombinant human VEGF-A121 (PeproTech), recombinant human VEGF-A145 (R & D Systems), or recombinant human VEGF-A165 (PeproTech) was added. Bound VEGF-A was detected with 1 μg/mL of mouse anti-human VEGF-A antibody (clone: 26503, R & D systems). After 60 min of incubation, horseradish peroxidase (HRP) conjugated goat anti-mouse antibody (1:2000 dilution, Dako) was added and incubated for another 60 min. Color development and the absorbance measurement were done as described above.

VEGF-A165 [2] = target: T2, VEGF-A165 (Homo sapiens, UniProt P15692); assay: vWF binding to recombinant VEGF-A isoforms (ELISA); settings: plate coated with 50 nM vWF domains, 1 μg/mL VEGF-A, vs BSA
T2 construct: All growth factors (GFs) and chemokines were purchased in their mature forms; purchased PeproTech; host or cells: Escherichia coli
T2 sequence (P15692 27-191 isoform P15692-4 limits assumed): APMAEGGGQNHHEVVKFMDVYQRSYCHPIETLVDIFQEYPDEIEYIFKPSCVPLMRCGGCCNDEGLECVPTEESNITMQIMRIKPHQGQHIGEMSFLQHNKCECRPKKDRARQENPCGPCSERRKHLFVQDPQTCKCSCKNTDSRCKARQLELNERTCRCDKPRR
Procedure: as §2

CXCL-12γ = target: T3, CXCL-12γ (Homo sapiens, UniProt P48061); assay: Recombinant GF binding to the vWF recombinant protein and A1 HBD peptide (ELISA); settings: plate coated with vWF protein, A1 domain or HBD peptide, 1 μg/mL GF
T3 construct: All GFs and chemokines were purchased in their mature forms; purchased R & D Systems; host or cells: Escherichia coli
T3 sequence (P48061 22-119 isoform P48061-3): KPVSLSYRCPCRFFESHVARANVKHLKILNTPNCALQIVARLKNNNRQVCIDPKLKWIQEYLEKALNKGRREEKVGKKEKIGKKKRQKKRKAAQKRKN
Procedure: (§3) ELISA tests were performed as described above. In brief, ELISA plates were coated with 1 μg/mL of FL-vWF (WT or R1341Q), 1 μg/mL of vWF A1 recombinant protein (U-Protein Express) or 1 μg/mL of vWF A1 HBD peptide (sequence […], (SEQ ID NO:50) chemically synthesized by Genscript) at 37° C. overnight. After blocking with 2% BSA solution containing PBS-T, 1 μg/mL of the recombinant human proteins VEGF-A121, VEGF-A165, PlGF-1, PlGF-2, PDGF-BB, FGF-2, CXCL-12α and CXCL-12γ were added. 1 μg/mL of BSA served as non-binding protein control. Bound GF or chemokine was detected with biotinylated antibodies for human VEGF-A, PlGF, PDGF-BB, FGF-2, or CXCL-12 (R & D Systems). The antibodies were detected by streptavidin-HRP (R & D Systems). Color development and the absorbance measurement were done as described above.

PDGF-BB = target: T4, PDGF-BB (Homo sapiens, UniProt P01127); assay: as above; settings: plate coated with vWF protein, A1 domain or HBD peptide, 1 μg/mL GF
T4 construct: All growth factors (GFs) and chemokines were purchased in their mature forms; purchased PeproTech; host or cells: Escherichia coli
T4 sequence (P01127 82-190 limits assumed): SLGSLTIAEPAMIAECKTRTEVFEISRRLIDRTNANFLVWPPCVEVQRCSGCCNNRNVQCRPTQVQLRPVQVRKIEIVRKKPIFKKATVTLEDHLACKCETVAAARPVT
Procedure: as §3

VEGF-A165 [3] = target: T2, VEGF-A165; assay: as above; settings: plate coated with vWF protein, A1 domain or HBD peptide, 1 μg/mL GF
Procedure: as §3

VEGF-A165 [4] = target: T2, VEGF-A165; assay: Surface plasmon resonance, vWF against GF; type: binding; settings: SPR; vWF immobilized; 1:1 Langmuir fit, single KD; read-out: dissociation constant (KD value) for VEGF-A165
Procedure: (§4) SPR assays were performed as described previously2. In brief, measurements were made with a Biacore X100 SPR system or Biacore 3000 SPR system (GE Healthcare). Plasma-derived vWF was immobilized via amine coupling on a C1 chip (GE Healthcare) for 2000 resonance units (RU) according to the manufacturer's instructions. Recombinant human VEGF-A165, VEGF-A121, or PDGF-BB was flowed at increasing concentrations in the running buffer at 30 μL/min. The sensor chip was regenerated with glycine at pH 2 for every cycle. Specific binding of GFs to vWF was calculated automatically using the response to a non-functionalized channel as a reference. Binding curves were fitted using BIAevalution software (GE Healthcare). vWF-VEGF-A165 binding results were fitted with Langmuir binding kinetics (1:1 binding with drifting baseline Rmax local). vWF-PDGF-BB binding results were fitted with heterogeneous ligand-parallel reaction.

VEGF-A121 = target: T5, VEGF-A121 (Homo sapiens, UniProt P15692); assay: Surface plasmon resonance, vWF against GF; type: binding; parameters: All growth factors (GFs) and chemokines were purchased in their mature forms; purchased PeproTech; host or cells: Escherichia coli; settings: vWF immobilized, VEGF-A121 50-800 nM
T5 sequence (P15692 27-147 isoform P15692-9 limits assumed): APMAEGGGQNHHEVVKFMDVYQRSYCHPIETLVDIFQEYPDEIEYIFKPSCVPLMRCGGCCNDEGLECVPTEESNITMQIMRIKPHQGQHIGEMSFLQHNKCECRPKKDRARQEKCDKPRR
Procedure: as §4

Substance | fibroblast proliferation (human lung fibroblasts) | endothelial proliferation [1] | binding to VEGF-A145 (VEGF-A145) | binding to VEGF-A165 (VEGF-A165 [2]) | binding to CXCL-12γ (CXCL-12γ) | binding to PDGF-BB (PDGF-BB) | binding to VEGF-A165 (VEGF-A165 [3]) | Kd (VEGF-A165 [4]) [nM] | binding to VEGF-A121 by SPR (VEGF-A121)
YIGLKDRKRPSELRRIASQVKYAC [vWF HBD] | did not significantly affect fibroblast proliferation | did not affect endothelial proliferation | able to bind | able to bind | showed binding | showed binding | showed binding | – | –
vWF: human plasma-derived von Willebrand factor (EMD Millipore) | – | – | bound | bind | – | – | – | 27 | did not show significant binding; also recorded: No binding was observed
